Results as given in article PMC6429771, “Identification of new glutamate decarboxylases from Streptomyces for efficient production of γ-aminobutyric acid in engineered Escherichia coli” (Journal of Biological Engineering, 2019).

Experiments:
Assay in all cases: GABA formation by Berthelot reaction, A630, Lineweaver-Burk plot
[1] = substrate: N[C@@H](CCC(=O)O)C(=O)O; type: biochemical, Escherichia coli; settings: 0.01 mM PLP, 200 mM Na2HPO4-citric acid buffer pH 4.0, 37 °C, 5-100 mM MSG
Source text: GABA formation by Berthelot reaction, A630, Lineweaver-Burk plot on GadB

[2] = substrate: N[C@@H](CCC(=O)O)C(=O)O; type: biochemical, Streptomyces toxytricini; settings: 0.01 mM PLP, 200 mM Na2HPO4-citric acid buffer pH 5.2, 37 °C, 5-100 mM MSG
Source text: GABA formation by Berthelot reaction, A630, Lineweaver-Burk plot on StGAD

[3] = substrate: N[C@@H](CCC(=O)O)C(=O)O; type: biochemical, Streptomyces chromofuscus; settings: 0.01 mM PLP, 200 mM Na2HPO4-citric acid buffer pH 4.2, 37 °C, 5-100 mM MSG
Source text: GABA formation by Berthelot reaction, A630, Lineweaver-Burk plot on ScGAD

B1: GadB (Escherichia coli K-12) (protein)
chain: MDKKQVTDLRSELLDSRFGAKSISTIAESKRFPLHEMRDDVAFQIINDELYLDGNARQNLATFCQTWDDENVHKLMDLSINKNWIDKEEYPQSAAIDLRCVNMVADLWHAPAPKNGQAVGTNTIGSSEACMLGGMAMKWRWRKRMEAAGKPTDKPNLVCGPVQICWHKFARYWDVELREIPMRPGQLFMDPKRMIEACDENTIGVVPTFGVTYTGNYEFPQPLHDALDKFQADTGIDIDMHIDAASGGFLAPFVAPDIVWDFRLPRVKSISASGHKFGLAPLGCGWVIWRDEEALPQELVFNVDYLGGQIGTFAINFSRPAGQVIAQYYEFLRLGREGYTKVQNASYQVAAYLADEIAKLGPYEFICTGRPDEGIPAVCFKLKDGEDPGYTLYDLSERLRLRGWQVPAFTLGGEATDIVVMRIMCRRGFEMDFAELLLEDYKASLKYLSDHPKLQGIAQQNSFKHT
**Q.** How did the Km [1] turn out when B1 was run?
**A.** 35.83 ± 2.40 mM

**Q.** And the Vmax [1]?
**A.** 12.5 ± 0.72 µmol/min/mg

**Q.** What about the kcat [1] of the same protein?
**A.** 11 ± 0.88 s⁻¹

**Q.** What about the kcat/Km [1] of the same protein?
**A.** 310 ± 20 M⁻¹ s⁻¹

B2: StGAD (Streptomyces toxytricini) (protein)
chain: MALHKTKDVTGGDTGTDVFTTALSGRVLPKYRMPEEHSPSEAVYALLRNELLLDGNAAQNLATFCTTWSDDGVHRLMNECLDKNMVDKDEYPQTAEIEARCVNILAHLWHAPAEDGPATGCSTTGSSEAAMLGGLALKWRWRARRRAQGLPADRPNLVCGPVQVCWEKFARYFDVELRQIPLEEDATGLRPHQLAEYVDENTIGVVAILGVTYTCDYEPVADIAAALDAIQQEHGWDVPIHVDGASGGLVAPFLHPDVVWDFALPRVASINTSGHKYGLAPLGVGWVVWRTADLLPPELVFDVDYLGGDMPTFALNFSRPGGEAIAQYYLFLRLGRSGYRSVHQSCADTARFLAGEIAAMGPFTLLYDGQGALPAVSYRLTDPAAAGFTLYDLSDRLRMRGWQVPAYPLPARRDDTVIQRVLIRHGVTLDQIALLAEDMRRALDHLRAAPPTQPPTAPRSGFHH
notes: full-length ORF (1395 bp, about 464 residues, 53 kDa) in pET28a (NdeI/HindIII), His6-tagged, expressed in E. coli BL21(DE3), Ni-NTA purified
**Q.** For B2, which Km [2] is on record?
**A.** 7.67 ± 0.55 mM

**Q.** What about the Vmax [2] of the same protein?
**A.** 0.226 ± 0.01 µmol/min/mg

**Q.** And the kcat [2]?
**A.** 0.2 ± 0.02 s⁻¹

**Q.** And the kcat/Km [2]?
**A.** 26 ± 3 M⁻¹ s⁻¹

B3: ScGAD (Streptomyces chromofuscus) (protein)
chain: MPLHQGADRAADIPEEDRAELRRLSLNPFYGEADPVSEMTSAPPTQRLPEGPTPPHTAYQLVHDELMLDGNSRLNLATFVTTWMEPQAGVLMAECQDKNMIDKDEYPRTAELERRCVAMLADLWNAPDPATAVGCSTTGSSEACMLAGLALKRRWAKRNAARYPATARPNLVMGVNVQVCWEKFCTFWEVEARLVPMEGDRFHLDPQAAADLCDEDTIGVVAVLGSTFDGSYEPVAELCAVLDALQERTGLDVPVHVDGASGAMIAPFLDEDLVWDFRLPRVSSINTSGHKYGLVYPGVGWALWRSPAELPEELVFRVNYLGGDMPTFALNFSRPGAQVVAQYYTFLRLGRDGYRAVQQTARDIATTLSARIERLGGFRLLTRGDQLPVFAFTTASDVTNFDVFDVSRRLREHGWLVPAYTFPAHREDLSVLRVVCRNGFSADLAAMLVADLKRVLPELRAQERPMDRDPSAATAFHH
**Q.** How did the Km [3] turn out when B3 was run?
**A.** 23.25 ± 2.07 mM

**Q.** What about the Vmax [3] of the same protein?
**A.** 29.9 ± 2.16 µmol/min/mg

**Q.** What about the kcat [3] of the same protein?
**A.** 28.1 ± 1.99 s⁻¹

**Q.** What about the kcat/Km [3] of the same protein?
**A.** 1210 ± 90 M⁻¹ s⁻¹
